Target: Bcl-xL, Q07817
Assay: peptide SPOT array, c-Myc-tagged receptor at 1 uM or 100 nM, anti-c-Myc-Cy3

Chain of Bcl-xL, Q07817 (Q07817 1-209): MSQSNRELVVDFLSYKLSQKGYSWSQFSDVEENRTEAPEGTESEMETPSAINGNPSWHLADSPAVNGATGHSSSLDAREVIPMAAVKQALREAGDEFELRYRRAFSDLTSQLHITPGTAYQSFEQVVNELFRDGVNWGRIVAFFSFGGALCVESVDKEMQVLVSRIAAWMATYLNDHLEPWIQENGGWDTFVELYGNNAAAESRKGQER

| SPOT signal as a fraction of Bim BH3's signal on the same receptor and array | Binder |
| --- | --- |
| 0.24 | ATKRETAATFDKKVAKEFGFQNNGFS [NPLOC4] |
| 0.03 | LASIGGLAARLQLWAFKLDYDSMERE [FHOD1] |
| 0.09 | WRERPDVGRYLRELSGSGLERLRREP [COG8] |
| 1.34 | AIKPVSFIRDDKKIARHFRFGNQEDA [USP36] |
| 0.18 | DIFMNNVIVRLSQISEDVIRLFKKSK [SRGAP3] |
| 0.02 | ENGHTDVADVLLQAGADLEHESEGGR [ANKRD17] |
| 0.03 | TNISWRACDHLRCILCDFLVVSYDDY [C8orf37] |
| 0.02 | EEIIHKLAMQLRHILDNIDHRMVRED [PXT1] |
| 0.94 | VYILRKAARRDAQVSRAAGVRVGLLS |
| 0.24 | DNHKKKTVKMLEYLLKDVLHGVFNYL |
| 0.03 | DISLSNSGFKDVNFGCDYHQYRDKFS [PION] |
| 0.03 | YEQAKNISQDLEKQAARVHEEAKRAG [LAMC1] |
| 0.02 | GKDHPDVAKQLNNLALLCQNQGKYEE [KLC1] |
| 0.02 | EVDVGKLVSRLQDGGTKITPKATNGP [OPHN1] |
| 0.03 | NESLTDTARVLSSMADAVLARVYKQS [OTC] |
| 0.58 | PHQFDGVPDKDIQAAYQVKYNSKKMK [EVI5] |
| 1.22 | AHKARALARLDRQTALAAFSDFKRLQ |
| 0.56 | MGVLAAAARCDVRGADRMSKWTSKRG [MRPL41] |
| 0.76 | VYILRKAARRLAQVSRAAGVRVGLLS |
| 1.5 | DTIFHRAAVRDRDLGGAILRHARRQA [BRPF3] |
| 0.02 | TCELGEFVKNIDQVSSEVLEGWPDSY [TLR1] |
| 0.52 | RTNNYQLSDELRKNLVELTSLRQKVA [GRIPAP1] |

Continued, binder first:

| Binder | SPOT signal as a fraction of Bim BH3's signal on the same receptor and array |
| --- | --- |
| PFDCRDYAVVLRKYLDKIYNISMKHP [FOLH1B] | 0.51 |
| GEGAEEAAKDLADIAAFFRSGFRKND [TRIO] | 0.03 |
| NEEGQQFALKLHRLLRTSFRNLKNKR [RIOK2] | 0.69 |
| AHKARALARLLRQTLLAAFSDFKRLQ | 0.59 |
| SSLSDGLPVHDANIADELTQKKKMFK | 0.03 |
| RGRTRGWVQTLARMSRRTRGPVERAA [C6orf223] | 0.75 |
| GENIRQAASSLQQASLKLFEMAYKKM [HSPA9] | 0.09 |
| GRQVEDAGRVLEGISKSISYDLDGEE [FIBIN] | 0.02 |
| GAQHSTMTSTLRRLLEDIFKGVVTKG | 0.19 |
| NPIGLYSAETLREMAQMYQMSLRGKA [LDB3] | 0.3 |
| GELAQVSGLEMRKWLDELFIIIMDML [mTOR] | 0.02 |
| DISALTASNLLKKYLEKYSGILEGPV [FIGN] | 0.13 |
| TREAQKMAQLLVVLGKIINMKIKLFM [UGGT2] | 0.1 |
| SSLSDGLPVHLANILDELTQKKKMFK | 0.1 |
| PKIYEGAARKLNVSSDTVQHGVEGLT [COMMD2] | 0.03 |
| TCRISESVKKLMELAYQTLLEATTSS [ZW10] | 0.04 |
| KTALEKYHDGIEKAAEDSYAKIDEKT [NUF2] | 0.02 |

| Binder | SPOT signal as a fraction of Bim BH3's signal on the same receptor and array |
| --- | --- |
| EVNMSLSGRYLEELSQRYRKQMEEMQ [C1orf9] | 0.03 |
| HSEITPYATDLAQTSEKLIPHLHKLP [CCDC129] | 0.02 |
| KFELEQNIKELNTLADQVDTTHELLT [APOL5] | 0.02 |
| RRRLLLASKELHQVAHDLDDELAWVQ [SPTBN4] | 0.06 |
| VIKQRRLPDQLSKLLDRIQLSGRYYL | 0.84 |
| GAQHSTMTSTDRRLGEDIFKGVVTKG | 0.03 |
| SQDFSELSTQLTGVARDLQEEMLPGS [MON1A] | 0.03 |
| FEKLRMIAKEDRHVGRMASVNMDPAL | 0.13 |
| REEIRKVVQSLEQTAREILTLLQGVH [TSN] | 0.04 |
| GFQVLNAIENLDDNAQRYDLDGLEKA [C9orf167] | 0.03 |
| LRQMQECAKRIAKVSAEAKLEIDEET [SKIV2L2] | 0.03 |
| KAIFDRLCKQLEKIGQQVDREPGDVA [ORC6L] | 0.04 |
| QEELQDWVKKIREVAQTADARLTEGK [PLCG1] | 0.03 |
| DNHKKKTVKMDEYLGKDVLHGVFNYL | 0.11 |
| FQEAKQFGQKLQDLAEHSDPEVRDKV [ARMCX5] | 0.02 |
| PFDCRDYAVVDRKYADKIYSISMKHP [FOLH1] | 0.45 |

From article PMC4072508, “Genome-Wide Prediction and Validation of Peptides That Bind Human Prosurvival Bcl-2 Proteins” (PLoS Computational Biology, 2014)
